According to PMC8811898, “Structural Insights into Methylated DNA Recognition by the Methyl-CpG Binding Domain of MBD6 from Arabidopsis thaliana”:
Changes are numbered by the printed parent chain.

Assays:
[1] = biological target: T1, AtMBD6 MBD domain WT (Arabidopsis thaliana, UniProt Q9LTJ1 78-140); experiment: NMR titration (1H-15N HSQC); 20 mM Na phosphate pH 6.5, 150 mM NaCl, 20 C; two-state fit; NMR: 20 mM Na phosphate pH 6.5, 150 mM NaCl, 5% D2O, 20 C; EMSA: 25 mM Tris, 25 mM boric acid, 150 mM NaCl, 5% glycerol, 1 mM DTT, 4 C, 30 min; conditions: protein: recombinant; tags: GST removed by HRV3C; N-terminal GPLGS remains; blunt; self-complementary
T1 sequence: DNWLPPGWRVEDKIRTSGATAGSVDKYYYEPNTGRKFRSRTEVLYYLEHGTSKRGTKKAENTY

[2] = biological target: T2, AtMBD6 MBD domain S100R (Arabidopsis thaliana, UniProt Q9LTJ1 78-140, S100R); experiment: NMR titration (1H-15N HSQC); slow exchange, increased affinity vs WT; no reliable Kd from NMR, ITC or FP; NMR: 20 mM Na phosphate pH 6.5, 150 mM NaCl, 5% D2O, 20 C; EMSA: 25 mM Tris, 25 mM boric acid, 150 mM NaCl, 5% glycerol, 1 mM DTT, 4 C, 30 min; conditions: protein: recombinant; tags: GST removed by HRV3C; N-terminal GPLGS remains; blunt; self-complementary
T2 sequence: T1 sequence with S23R

B1: MG (dsDNA)
DNA 1: GGTATGCGCATACC
DNA 2: GGTATGCGCATACC
modifications: 5-methylcytosine at position 7 of both strands (symmetric methyl-CpG)
With B1 the Kd [1] was 40.2 ± 0.5 µM and the binding result [2] was “binds”.
